From PMC4746669, “Attenuation of ligand-induced activation of angiotensin II type 1 receptor signaling by the type 2 receptor via protein kinase C” (Scientific Reports, 2016) come the findings set out here.

For assay [1], the target named is T1, FLAG-AT2R-CFP (angiotensin II type 2 receptor) (human, UniProt P50052 1-363).
T1 construct: Human angiotensin II type 2 receptor (AT2R); cDNA by RT-PCR from human umbilical vein endothelial cells; printed primers run from the codon after the initial methionine to the last codon; FLAG tag inserted after the initial methionine; subcloned EcoRI-NotI into pCXN2-CFPC; also called CFP-tagged AT2R; source: HeLa cells, transfected (FuGENE HD), in lysate or in living cells; not shown: FLAG, …
T1 sequence (looked up): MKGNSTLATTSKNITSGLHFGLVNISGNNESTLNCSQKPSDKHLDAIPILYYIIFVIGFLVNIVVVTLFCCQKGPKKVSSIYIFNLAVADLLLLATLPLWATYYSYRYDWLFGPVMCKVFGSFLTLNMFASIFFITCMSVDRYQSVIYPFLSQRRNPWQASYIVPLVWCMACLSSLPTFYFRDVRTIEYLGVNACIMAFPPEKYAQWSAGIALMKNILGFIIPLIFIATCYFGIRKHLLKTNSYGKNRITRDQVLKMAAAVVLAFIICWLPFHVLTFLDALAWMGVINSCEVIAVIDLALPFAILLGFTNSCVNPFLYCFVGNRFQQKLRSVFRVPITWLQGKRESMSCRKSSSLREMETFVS
The experiment in a line: co-IP; 293T cells, with or without AII (Suppl. Fig. S3); details not shown. To be noted: partners not purified.

Assay [2] deals with T1, FLAG-AT2R-CFP (angiotensin II type 2 …). As to the kind of experiment: co-IP; HeLa cells co-transfected with HA-AT1R-YFP and Flag-AT2R-CFP, serum starved, with or without losartan or PD123319 pre-treatment and AII stimulation; NP-40 lysis buffer (10 mM Tris-HCl pH 7.4, 150 mM NaCl, 5 mM EDTA, 0.5% NP-40, 10% glycerol); anti-FLAG antibody with protein A-Sepharose; blot with anti-HA. To be noted: partners not purified.

B1: HA-AT1R-YFP (angiotensin II type 1 receptor) (receptor, human, UniProt P30556 1-359, looked up)
chain: MILNSSTEDGIKRIQDDCPKAGRHNYIFVMIPTLYSIIFVVGIFGNSLVVIVIYFYMKLKTVASVFLLNLALADLCFLLTLPLWAVYTAMEYRWPFGNYLCKIASASVSFNLYASVFLLTCLSIDRYLAIVHPMKSRLRRTMLVAKVTCIIIWLLAGLASLPAIIHRNVFFIENTNITVCAFHYESQNSTLPIGLGLTKNILGFLFPFLIILTSYTLIWKALKKAYEIQKNKPRNDDIFKIIMAIVLFFFFSWIPHQIFTFLDVLIQLGIIRDCRIADIVDTAMPITICIAYFNNCLNPLFYGFLGKKFKRYFLQLLKYIPPKAKSHSNLSTKMSTLSYRPSDNVSSSTKKPAPCFEVE
notes: Human angiotensin II type 1 receptor (AT1R); cDNA by RT-PCR from human umbilical vein endothelial cells; printed primers run from the codon after the initial methionine to the last codon; HA tag inserted after the initial methionine; subcloned EcoRI-NotI into pCXN2-YFPC; The reverse primer also encodes a stretch behind the NotI site that is lost on subcloning EcoRI-NotI into pCXN2-YFPC; also …
On to B1, for which the “fold enhancement of the association by AII treatment (against no AII)” value in assay [1] came to 2.4 fold; in assay [2], 1.6 fold.
